The source of these data is patent US20230220067A1 (Johns Hopkins, published 2023).

For assay [1], the target named is T1, potassium two pore domain channel subfamily K member 9 (KCNK9) (human, UniProt Q9NPC2 1-374).
T1 construct: whole, on cells; also called human KCNK9
The assay is described as follows: flow cytometry on induced KCNK9-expressing HEK293 cells, anti-human Fc FITC secondary. The source says: An anti-KCNK9 mouse monoclonal antibody having a VH amino acid sequence of SEQ ID NO: 1 and a VL amino acid sequence of SEQ ID NO: 2 (mu-mAb) was humanized using a method based on Queen et al., Proc. Natl. Acad. Sci. USA, 86: 10029-10033 (1989). The hybridoma antibody was sequenced after amplifying the antibody variable regions by RT-PCR with degenerate primers. The variable regions were fused with the human antibody IgG1 constant regions to produce a chimeric antibody. Antigen binding of the chimeric antibody was confirmed by staining of the KCNK9-expressing cells. HEK293 cells were stably transfected with KCNK9 expression vector under the tetracycline inducible promoter. After induction, the cells were incubated with various concentrations of chimeric KCNK9 antibody for 30 minutes, followed by secondary anti-human Fc FITC conjugate. Chimeric antibody binding was analyzed by flow cytometry.
For orientation: A flow cytometer gives signals particle by particle.

Another assay deals with human FcγIII (human, UniProt P08637 17-254). The assay is described as follows: cell-based or functional assay.
human FcγIII, sequence (P08637 17-254): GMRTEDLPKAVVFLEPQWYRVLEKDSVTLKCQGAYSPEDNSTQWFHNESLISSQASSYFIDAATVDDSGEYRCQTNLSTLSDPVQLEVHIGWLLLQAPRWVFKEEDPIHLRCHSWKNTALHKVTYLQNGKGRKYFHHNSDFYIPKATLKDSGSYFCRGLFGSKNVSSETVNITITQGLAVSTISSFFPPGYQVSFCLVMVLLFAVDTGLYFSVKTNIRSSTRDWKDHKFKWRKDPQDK
The target of assay [2] is T1, potassium two pore domain channel …. The assay is described as follows: flow cytometry of KCNK9-expressing cells, anti-human Fc PE secondary. The source says:
After antibody sequence analysis and structure modeling, the murine antibody CDRs (SEQ ID NOs: 3-8) were grafted into human antibody VK3-11 and VH1-3 frameworks. Critical murine antibody framework residues that support CDR conformation were identified and introduced into the human frameworks. Five variants of the humanized VH sequences (VH1-5; SEQ ID NOs: 9-13) and three variants of the humanized VL variants (VL1-3; SEQ ID NOs: 14-16) were designed and synthesized. All of the variable regions were cloned into a human IgG1 expression vector. The VHs and VLs were cross-matched to generate 15 humanized KCNK9 antibody clones. All humanized antibodies were produced by transient transfection in 293 cells and purified by Protein A chromatography. Antigen binding of the humanized KCNK9 antibodies was characterized by immunofluorescence staining of KCNK9-expressing cells.

What is called EC50 is the concentration needed to bring the measured effect to its halfway point.

T1 sequence (Q9NPC2 whole entry, the tested form may be a part): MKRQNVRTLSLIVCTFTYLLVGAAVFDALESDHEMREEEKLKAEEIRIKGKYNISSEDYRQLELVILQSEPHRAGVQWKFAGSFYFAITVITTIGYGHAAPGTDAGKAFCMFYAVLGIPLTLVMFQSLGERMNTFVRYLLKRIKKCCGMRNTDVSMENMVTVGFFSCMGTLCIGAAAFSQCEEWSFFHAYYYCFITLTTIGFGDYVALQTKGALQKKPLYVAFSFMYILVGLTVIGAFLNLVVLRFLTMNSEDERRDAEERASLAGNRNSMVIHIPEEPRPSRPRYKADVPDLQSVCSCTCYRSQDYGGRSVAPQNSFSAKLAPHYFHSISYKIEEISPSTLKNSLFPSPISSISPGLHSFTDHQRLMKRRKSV

B1: chimeric KCNK9 antibody (antibody, V domains shown)
VH: EVQLQQSGPELVKPGASVKTSCKASGYSFTGYYMYWVKQSPEKSLEWIGEINPSSGGTTYNQKFKAKATLTVDKSSSTAYMQLKSLTFEDSAVYYCARSGLRRRFYAMDYWGQGTSVTVSS
VL: DIVLTQSPASLAVSLGQRATVSCRASESVDSFGTTFMHWYQQKPGQPPKLLIYRASNLESGIPARFSGSGSRTDFTLTINPVEADDVATYYCQQSNKDPPTFGGGSKLEIK
notes: Variable regions of the mouse anti-KCNK9 monoclonal antibody (mu-mAb) fused with human antibody IgG1 constant regions; also called chimeric antibody; chimeric KCNK9 monoclonal antibody
Regarding B1, the EC50 in assay [1] was about 0.3 µg/mL.

B2: afucosyl humanized KCNK9 monoclonal antibody AF-H4L3 (antibody, V domains shown)
VH: QVQLVQSGAEVKKPGASVKVSCKASGYSFTGYYMYWVRQAPGQRLEWMGEINPSSGGTTYNQKFKARVTLTVDKSASTAYMELSSLRSEDTAVYYCARSGLRRRFYAMDYWGQGTLVTVSS
VL: EIVLTQSPATLSLSPGERATLSCRASESVDSFGTTFMHWYQQKPGQPPRLLIYRASNLESGIPARFSGSGSRTDFTLTISSLEPEDFATYYCQQSNKDPPTFGGGTKVEIK
modifications: afucosyl N-glycan on the Fc region (made in fut8-/- CHO cells)
B2: the “ADCC activity (lysis of KCNK9-expressing HEK293 target cells by NK92-3F9 effector cells)” value with human FcγIII is 100 fold.

B3: humanized KCNK9 antibody clone H4L3 (antibody, V domains shown)
VH: QVQLVQSGAEVKKPGASVKVSCKASGYSFTGYYMYWVRQAPGQRLEWMGEINPSSGGTTYNQKFKARVTLTVDKSASTAYMELSSLRSEDTAVYYCARSGLRRRFYAMDYWGQGTLVTVSS
VL: EIVLTQSPATLSLSPGERATLSCRASESVDSFGTTFMHWYQQKPGQPPRLLIYRASNLESGIPARFSGSGSRTDFTLTISSLEPEDFATYYCQQSNKDPPTFGGGTKVEIK
notes: Variable regions cloned into a human IgG1 expression vector; produced in 293 cells
As to B3, in assay [2], the binding result is listed as “binds”.

B4: afucosyl humanized KCNK9 monoclonal antibody AF-H5L2 (antibody, V domains shown)
VH: QVQLVQSGAEVKKPGASVKVSCKASGYSFTGYYMYWVRQAPGQRLEWIGEINPSSGGTTYNQKFKARATLTVDKSASTAYMELSSLRSEDTAVYYCARSGLRRRFYAMDYWGQGTLVTVSS
VL: EIVLTQSPATLSLSPGERATLSCRASESVDSFGTTFMHWYQQKPGQAPRLLIYRASNLESGIPARFSGSGSRTDFTLTISSLEPEDFAVYYCQQSNKDPPTFGGGTKVEIK
modifications: afucosyl N-glycan on the Fc region (made in fut8-/- CHO cells)
Consider B4, for which, in the assay with human FcγIII, the “ADCC activity (lysis of KCNK9-expressing HEK293 target cells by NK92-3F9 effector cells)” value was 100 fold.

B5: humanized KCNK9 antibody clone H5L2 (antibody, V domains shown)
VH: QVQLVQSGAEVKKPGASVKVSCKASGYSFTGYYMYWVRQAPGQRLEWIGEINPSSGGTTYNQKFKARATLTVDKSASTAYMELSSLRSEDTAVYYCARSGLRRRFYAMDYWGQGTLVTVSS
VL: EIVLTQSPATLSLSPGERATLSCRASESVDSFGTTFMHWYQQKPGQAPRLLIYRASNLESGIPARFSGSGSRTDFTLTISSLEPEDFAVYYCQQSNKDPPTFGGGTKVEIK
notes: as for B3
B5: in assay [2], the binding result was “binds”.
